Assay results as given in patent US20090269831A1 (REGENTS OF THE UNIVERSITY OF MINNESOTA, published 2009).

What was measured:
[1] = biological target: the molecule itself; experiment: size exclusion, Superdex 75 (self-association)
Protocol: GST-based constructs were expressed in E. coli strain BL21 DE3 RIL (Stratagene). Unlabeled proteins were produced by overnight expression at 17° C. in LB medium containing 1 mM IPTG and 200 μg/mL ampicillin. Isotope-labeled proteins were produced by overnight expression at 17° C. in M9 supplemented with ¹⁵NH₄Cl, ¹³C-labeled D-glucose and ²H water as previously described by Devany et al., Protein Sci. 13, 2252-259 (2004). Proteins were purified by sonicating cell pellets in lysis buffer [100 mM NaCl, 50 mM Na₂HPO₄/NaH₂PO₄ (pH7.0), protease inhibitor (Roche)], separating the soluble (supernatant) and insoluble (pellet) fractions by centrifugation (12,110 g, 20 min, 4° C.), binding to glutathione sepharose (GE healthcare), washing with lysis buffer and eluting with PreScission protease (GE Healthcare) in 1 mM DTT, 50 mM Na₂HPO₄/NaH₂PO₄ [pH7.4] and, finally, concentrating with Centricon filters (Millipore). Solubility was monitored by SDS PAGE, coomassie blue staining and/or immunoblotting as discussed above. […] GST and lysozyme were purchased from Sigma.

[2] = biological target: the molecule itself; experiment: sedimentation velocity analytical ultracentrifugation (self-association)
Protocol: Sedimentation Velocity Analytical Ultracentrifugation Experiments. A3G-2K3A was diluted to 0.15, 0.4, 0.8 or 1.2 mg/ml in a buffer containing 50 mM Na₂HPO₄/NaH₂PO₄ [pH7.4], 0.005% tween 20, 5 mM dithiothreitol and 50 μM ZnCl₂. Samples were then sedimented using a 4-hole rotor at 20° C. and 55,000 rpm. The rotor and cells were preequilibrated at 20° C. and the samples were kept on ice during protein preparation and dilution. Synthetic boundary cells were loaded with 430 μL of buffer and 420 μL of the appropriate sample solution. The cells were placed in the rotor and accelerated to 24,000 rpm while monitoring the transfer of the excess buffer in each cell. Subsequently, the rotor was stopped and then gently inverted to thoroughly mix the contents of the cells. The rotor was then equilibrated under vacuum at 20° C. and after a period of ˜1 hour at 20° C. the rotor was accelerated to 55,000 rpm. Interference scans were acquired at 1 minute intervals for 6 hours. The data for each loading concentration was analyzed using the program DcDt+ (version 2.0.7). See Philo, Anal. Biochem. 354, 238-246 (2006); and Philo, Anal. Biochem. 279, 151-163 (2000). The complete data set for A3G-2K3A was analyzed using Sedphat v4.4b using the model of a hybrid local continuous distribution and global discrete species. Schuck, Anal. Biochem. 320, 104-124 (2003). […]

Protein | binding result [1] | binding result [2]
A3G198-384 (enzyme, also called CTD) DPPTFTFNFNNEPWVRGRHETYLCYEVERMHNDTWVLLNQRRGFLCNQAPHKHGFLEGRHAELCFLDVIPFWKLDLDQDYRVTCFTSWSPCFSCAQEMAKFISKNKHVSLCIFTARIYDDQGRCQEGLRTLAEAGAKISIMTYSEFKHCWDTFVDHQGCPFQPWDGLDEHSQDLSGRLRAILQNQEN | no binding (tested: 1 mg (approx. 1 mL)) | –
A3G-2K3A (enzyme, released from the GST fusion with PreScission protease) DPPTFTFNFNNEPWVRGRHETYLCYEVERMHNDTWVKLNQRRGFLANQAPHKHGFLEGRHAELCFLDVIPFWKLDLDQDYRVTCFTSWSPCFSCAQEMAKFISKNKHVSLCIKTARIYDDQGRAQEGLRTLAEAGAKISIMTYSEFKHCWDTFVDHQGAPFQPWDGLDEHSQDLSGRLRAILQNQEN | – | no binding (tested: 0.15, 0.4, 0.8 or 1.2 mg/ml)
